B1: horse ACE2 ectodomain fused with mouse Fc (Fc fusion)
chain: QSTTEDLAKTFLEKFNSEAEELSHQSSLASWSYNTNITDENVQKMNEAGARWSAFYEEQCKLAKTYPLEEIQNLTVKRQLQALQQSGSSVLSADKSKLNEILNTMSTIYSTGKVCNPSNPQECLLLEPGLDAIMENSKDYNQRLWAWEGWRSEVGKQLRPLYEEYVVLKNEMARANNYEDYGDYWRGDYEAEGPSGYDYSRDQLIEDVERTFAEIKPLYEHLHAYVRAKLMDTYPSHINPTGCLPAHLLGDMWGRFWTNLYSLTVPFGQKPNIDVTDAMVDQSWDAKRIFEEAEKFFVSVGLPNMTQGFWENSMLTEPGDGRKVVCHPTAWDLGKGDFRIKMCTKVTMDDFLTAHHEMGHIQYDMAYAVQPYLLRNGANEGFHEAVGEIMSLSAATPNHLKAIGLLPPDFYEDSETEINFLLKQALTIVGTLPFTYMLEKWRWMVFKGEIPKEEWMKKWWEMKREIVGVVEPVPHDETYCDPAALFHVANDYSFIRYYTRTIYQFQFQEALCQTAKHEGPLHKCDISNSTEAGQKLLQMLSLGKSEPWTLALERIVGVKNMDVRPLLNYFEPLFTWLKDQNKNSFVGWSTNWSPYADQSIKVRISLKSALGEKSYEWNDNEMYLFQSSVAYAMRVYFLKAKNQTILFGEEDVWVSDLKPRISFNFFVTSPKNASDIIPRTDVEEAIRMSRSRINDAFRLDDNTLEFLGIQPTLGPPYQPPVT
B2: dog ACE2 ectodomain fused with mouse Fc (Fc fusion)
chain: QSTEDLVKTFLEKFNYEAEELSYQSSLASWNYNINITDENVQKMNNAGAKWSAFYEEQSKLAKTYPLEEIQDSTVKRQLRALQHSGSSVLSADKNQRLNTILNSMSTVYSTGKACNPSNPQECLLLEPGLDDIMENSKDYNERLWAWEGWRSEVGKQLRPLYEEYVALKNEMARANNYEDYGDYWRGDYEEEWENGYNYSRNQLIDDVELTFTQIMPLYQHLHAYVRTKLMDTYPSYISPTGCLPAHLLGDMWGRFWTNLYPLTVPFGQKPNIDVTNAMVNQSWDARKIFKEAEKFFVSVGLPNMTQEFWGNSMLTEPSDSRKVVCHPTAWDLGKGDFRIKMCTKVTMDDFLTAHHEMGHIQYDMAYAAQPFLLRNGANEGFHEAVGEIMSLSAATPNHLKNIGLLPPSFFEDSETEINFLLKQALTIVGTLPFTYMLEKWRWMVFKGEIPKDQWMKTWWEMKRNIVGVVEPVPHDETYCDPASLFHVANDYSFIRYYTRTIYQFQFQEALCQIAKHEGPLHKCDISNSSEAGQKLLEMLKLGKSKPWTYALEIVVGAKNMDVRPLLNYFEPLFTWLKEQNRNSFVGWNTDWSPYADQSIKVRISLKSALGEKAYEWNNNEMYLFRSSIAYAMRQYFSEVKNQTIPFVEDNVWVSDLKPRISFNFSVTSPGNVSDIIPRTEVEEAIRMYRSRINDVFRLDDNSLEFLGIQPTPGPPYEPPVT
B3: cat ACE2 ectodomain fused with mouse Fc (Fc fusion)
chain: QSTTEELAKTFLEKFNHEAEELSYQSSLASWNYNTNITDENVQKMNEAGAKWSAFYEEQSKLAKTYPLAEIHNTTVKRQLQALQQSGSSVLSADKSQRLNTILNAMSTIYSTGKACNPNNPQECLLLEPGLDDIMENSKDYNERLWAWEGWRAEVGKQLRPLYEEYVALKNEMARANNYEDYGDYWRGDYEEEWTDGYNYSRSQLIKDVEHTFTQIKPLYQHLHAYVRAKLMDTYPSRISPTGCLPAHLLGDMWGRFWTNLYPLTVPFGQKPNIDVTDAMVNQSWDARRIFKEAEKFFVSVGLPNMTQGFWENSMLTEPGDSRKVVCHPTAWDLGKGDFRIKMCTKVTMDDFLTAHHEMGHIQYDMAYAVQPFLLRNGANEGFHEAVGEIMSLSAATPNHLKTIGLLSPGFSEDSETEINFLLKQALTIVGTLPFTYMLEKWRWMVFKGEIPKEQWMQKWWEMKREIVGVVEPVPHDETYCDPASLFHVANDYSFIRYYTRTIYQFQFQEALCRIAKHEGPLHKCDISNSSEAGKKLLQMLTLGKSKPWTLALEHVVGEKKMNVTPLLKYFEPLFTWLKEQNRNSFVGWNTDWRPYADQSIKVRISLKSALGDEAYEWNDNEMYLFRSSVAYAMREYFSKVKNQTIPFVEDNVWVSNLKPRISFNFFVTASKNVSDVIPRSEVEEAIRMSRSRINDAFRLDDNSLEFLGIQPTLSPPYQPPVT

The record followed here is PMC7526519 (2020).

Broadly, the Kd is a measure of binding affinity in units of concentration. A low value points to higher affinity.

One assay deals with SARS-CoV receptor binding domain (RBD), His-tagged (SARS-CoV, UniProt P59594 306-527). Put plainly: SPR. For orientation: In SPR one partner is held on a chip, and binding of the other changes the refractive index at the surface.
B1: binding was characterised by a dissociation constant (Kd) of 141 nM.

As for B2, the Kd turned out to be 20 nM.

B3 returned a Kd of 69.9 nM.

A further assay addresses SARS-CoV-2 receptor binding domain (RBD), His-tagged (SARS-CoV-2, UniProt P0DTC2 319-541). The assay can be described thus: SPR.
The molecule B1 registered a Kd of 133 nM.

B2 showed a Kd of 98.9 nM.

For B3, the Kd is 85.7 nM.
